Target: T1, TcrX D54A D54A (Mycobacterium tuberculosis H37Rv) (UniProt O69730)
T1 sequence: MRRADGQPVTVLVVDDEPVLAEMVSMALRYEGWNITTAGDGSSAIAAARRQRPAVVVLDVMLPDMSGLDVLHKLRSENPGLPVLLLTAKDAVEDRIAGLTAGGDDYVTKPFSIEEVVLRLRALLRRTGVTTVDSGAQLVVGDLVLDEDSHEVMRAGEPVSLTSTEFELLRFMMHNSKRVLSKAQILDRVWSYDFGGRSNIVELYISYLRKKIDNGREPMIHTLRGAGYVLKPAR
Experiment: EMSA

“TACGACACGCTCAACCGAGATGCGGTGCTGCGTCACAGCGTCAAGTATCCGCACACGGCTGAGCAGACGCCATGCGGATCCTATGTGCGCGCTATGAAACCCGATTTG (double strand) [PtcrXY]” was tested, and the binding was “binds”.

Source: paper PMC10883919
